Target: MqsA (Escherichia coli (strain of the protein …, UniProt Q46864 1-131))
Test: EMSA; shift at 50-, 100- and 200-fold excess MqsA; 10 mM Tris-HCl pH 7.5, 50 mM KCl, 1 mM DTT, 1 ug poly(dI.dC), 30-50 fmol labeled probe, ambient temperature, 1 h; 6% gel, 0.5x TBE

Chain of MqsA (Escherichia coli (Q46864 whole entry): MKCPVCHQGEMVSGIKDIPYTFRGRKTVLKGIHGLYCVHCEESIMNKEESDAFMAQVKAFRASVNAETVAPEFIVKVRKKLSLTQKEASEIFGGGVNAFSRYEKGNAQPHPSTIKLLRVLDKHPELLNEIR

B1: p-csgD native palindrome 30-mer (dsDNA)
DNA 1: ACTTAATAAAACCTTAAGGTTAACATTTTA
DNA 2: TAAAATGTTAACCTTAAGGTTTTATTAAGT
Does B1 bind?
Result: binds
